Source: paper PMC2878485 (Structure (London, England : 1993), 2008)
Residue numbers refer to the chain shown, from its start.

T1: UL44ΔC290 R165A/K167A/R168A/K171A/K172A (human cytomegalovirus, UniProt P16790 1-290, R165A | K167A | R168A | K171A | K172A)
T1 sequence (looked up): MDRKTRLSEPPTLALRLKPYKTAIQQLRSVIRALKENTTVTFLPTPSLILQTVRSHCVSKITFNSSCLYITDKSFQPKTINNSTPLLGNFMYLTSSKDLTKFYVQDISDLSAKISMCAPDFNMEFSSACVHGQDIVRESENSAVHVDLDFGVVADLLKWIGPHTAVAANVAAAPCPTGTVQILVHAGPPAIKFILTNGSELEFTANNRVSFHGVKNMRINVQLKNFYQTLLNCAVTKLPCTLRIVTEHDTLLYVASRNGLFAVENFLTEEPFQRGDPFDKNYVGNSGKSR

T2: UL44ΔC290 K35A/K158A/K224A/K237A (human cytomegalovirus, UniProt P16790 1-290, K35A | K158A | K224A | K237A)
T2 sequence (looked up): T1 sequence (looked up) with K35A, K158A, A165R, A167K, A168R, A171K, A172K, K224A, K237A

T3: UL44ΔC290 (wild-type; N-terminal 290 residues of human cytomegalovirus UL44) (human cytomegalovirus, UniProt P16790 1-290)
T3 sequence (looked up): T1 sequence (looked up) with A165R, A167K, A168R, A171K, A172K

B1: 18 bp thiol-tethered DNA (dsDNA)
DNA 1: TACCGCAGCCATCAGAGT
DNA 2: ACTCTGATGGCTGCGGTA
modifications: single thiol tether on backbone phosphate between bases 11 and 12 of strand 1

Assays:
[1] = target: T1, UL44ΔC290 R165A/K167A/R168A/K171A/K172A; test: ITC
[2] = target: T2, UL44ΔC290 K35A/K158A/K224A/K237A; test: ITC
[3] = target: T3, UL44ΔC290 (wild-type; N-terminal 290 …); test: ITC
[4] = target: UL44ΔC290 wild-type (Human cytomegalovirus, UniProt P16790 1-290); test: disulfide crosslinking, nonreducing PAGE

| Binder | binding result [1] | binding result [2] | binding result [3] | binding result [4] |
| --- | --- | --- | --- | --- |
| LPRRLHLEPAFLPYSVKAHECC (peptide, UniProt P08546 1221-1242, looked up) [peptide corresponding to the C-terminal 22 residues of UL54] | binds | binds | binds | – |
| B1 | – | – | – | binds |
